Results as given in US20210292413A1 (ACADEMIA SINICA, published 2021).

B1: SHP-1 (enzyme)
chain: not shown
B2: anti-Siglec-3 mAb clone 10C8 (antibody, human IgG1, kappa, V domains shown)
VH: EVQLVESGGGLVQPGGSLRLSCAASGFTINNGWIHWVRQAPGKGLEWVAGIGPYGGSTFYADSVKGRFTISADTSKNTAYLQMNSLRAEDTAVYYCSRFIGSYSHMDYWGQGTLVTVSS
VL: DIQMTQSPSSLSASVGDRVTITCRASQDVYYYVAWYQQKPGKAPKLLISSAGGLYSGVPSRFSGSGSGTDFTLTISSLQPEDFATYYCQQYFNFPLTFGQGTKVEIKR
notes: the isotype control used beside it is IgG1; also called mAb 10C8; antibody 10C8

Legend:
[1] = target: T1, human Siglec-3 on cells (moDC, PBMC of CHB patients) (human, UniProt P20138 18-364); experiment: co-IP (IP: Siglec-3) from moDC, HBV +, 10C8 + (10C8 given 1 hour before HBV); Western blot, densitometry, normalized to the untreated control [E]
T1 construct: whole, on cells; also called Siglec-3 receptor

[2] = target: T1, human Siglec-3 on cells (moDC, PBMC of …); experiment: co-IP (IP: Siglec-3) from moDC incubated with hHBV for 0 min; Western blot, densitometry, normalized to the starting point [E]
[3] = target: T1, human Siglec-3 on cells (moDC, PBMC of …); experiment: co-IP (IP: Siglec-3) from moDC, HBV +, 10C8 -; Western blot, densitometry, normalized to the untreated control [E]
[4] = target: T1, human Siglec-3 on cells (moDC, PBMC of …); experiment: co-IP (IP: Siglec-3) from moDC incubated 30 mins with 10^8 copies/mL hHBV; Western blot, densitometry, normalized to the first lane [F]
[5] = target: T1, human Siglec-3 on cells (moDC, PBMC of …); experiment: co-IP (IP: Siglec-3) from moDC incubated with hHBV for 30 min; Western blot, densitometry, normalized to the starting point [E]
[6] = target: T1, human Siglec-3 on cells (moDC, PBMC of …); experiment: co-IP (IP: Siglec-3) from moDC incubated 30 mins with 3x10^8 copies/mL hHBV; Western blot, densitometry, normalized to the first lane [F]
[7] = target: T1, human Siglec-3 on cells (moDC, PBMC of …); experiment: co-IP (IP: Siglec-3) from moDC, HBV -, 10C8 +; Western blot, densitometry, normalized to the untreated control [E]
[8] = target: T1, human Siglec-3 on cells (moDC, PBMC of …); experiment: co-IP (IP: Siglec-3) from moDC treated with anti-Siglec-3 mAb 10C8; Western blot, densitometry, fold of Mock [A]
[9] = target: T1, human Siglec-3 on cells (moDC, PBMC of …); experiment: co-IP (IP: Siglec-3) from moDC treated with HBV (hHBV); Western blot, densitometry, fold of Mock [A]
[10] = target: T1, human Siglec-3 on cells (moDC, PBMC of …); experiment: co-IP (IP: Siglec-3) from moDC incubated 30 mins with 0 copies/mL hHBV; Western blot, densitometry, normalized to the first lane [F]
[11] = target: T1, human Siglec-3 on cells (moDC, PBMC of …); experiment: co-IP (IP: Siglec-3) from moDC incubated 30 mins with 10^9 copies/mL hHBV; Western blot, densitometry, normalized to the first lane [F]
[12] = target: T1, human Siglec-3 on cells (moDC, PBMC of …); experiment: co-IP (IP: Siglec-3) from moDC incubated with hHBV for 15 min; Western blot, densitometry, normalized to the starting point [E]
[13] = target: T1, human Siglec-3 on cells (moDC, PBMC of …); experiment: co-IP (IP: Siglec-3) from moDC treated with anti-Siglec-3 mAb 2B9; Western blot, densitometry, fold of Mock; strong band at the 72 mark [A]
[14] = target: T1, human Siglec-3 on cells (moDC, PBMC of …); experiment: co-IP (IP: Siglec-3) from moDC, lane Mock; Western blot, densitometry [A]
[15] = target: T1, human Siglec-3 on cells (moDC, PBMC of …); experiment: co-IP (IP: Siglec-3) from moDC incubated with hHBV for 60 min; Western blot, densitometry, normalized to the starting point [E]
[16] = target: T1, human Siglec-3 on cells (moDC, PBMC of …); experiment: co-IP (IP: Siglec-3) from moDC, HBV -, 10C8 -; Western blot, densitometry, normalized to the untreated control [E]
[17] = target: T1, human Siglec-3 on cells (moDC, PBMC of …); experiment: flow cytometry on moDC with APC-conjugated anti-Siglec-3 mAb

T1 sequence (P20138 18-364): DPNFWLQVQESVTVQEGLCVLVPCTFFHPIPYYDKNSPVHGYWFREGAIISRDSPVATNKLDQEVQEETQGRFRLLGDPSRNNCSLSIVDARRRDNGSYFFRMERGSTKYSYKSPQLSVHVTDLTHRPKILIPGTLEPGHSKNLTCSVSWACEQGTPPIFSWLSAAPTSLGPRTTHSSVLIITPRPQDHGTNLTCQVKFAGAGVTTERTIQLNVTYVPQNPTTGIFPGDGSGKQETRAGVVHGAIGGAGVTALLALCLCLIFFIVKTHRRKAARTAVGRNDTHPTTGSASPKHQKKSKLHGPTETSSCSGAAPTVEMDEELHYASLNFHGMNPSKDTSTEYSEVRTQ

Row | Binder | fold change of SHP-1 co-precipitated with Siglec-3 [1] [fold] | fold change of SHP-1 co-precipitated with Siglec-3 [2] [fold] | fold change of SHP-1 co-precipitated with Siglec-3 [3] [fold] | fold change of SHP-1 co-precipitated with Siglec-3 [4] [fold] | fold change of SHP-1 co-precipitated with Siglec-3 [5] [fold] | fold change of SHP-1 co-precipitated with Siglec-3 [6] [fold] | fold change of SHP-1 co-precipitated with Siglec-3 [7] [fold] | fold change of SHP-1 co-precipitated with Siglec-3 [8] [fold] | fold change of SHP-1 co-precipitated with Siglec-3 [9] [fold] | fold change of SHP-1 co-precipitated with Siglec-3 [10] [fold] | fold change of SHP-1 co-precipitated with Siglec-3 [11] [fold] | fold change of SHP-1 co-precipitated with Siglec-3 [12] [fold] | fold change of SHP-1 co-precipitated with Siglec-3 [13] [fold] | fold change of SHP-1 co-precipitated with Siglec-3 [14] [fold] | fold change of SHP-1 co-precipitated with Siglec-3 [15] [fold] | fold change of SHP-1 co-precipitated with Siglec-3 [16] [fold] | binding result [17]
1 | B1 | 1.2 | 1 | 10 | 1.5 | 26 | 7.7 | 1.3 | 1.3 | 2.4 | 1 | 14 | 9.1 | 36 | 1 | 11 | 1 | –
2 | B2 | – | – | – | – | – | – | – | – | – | – | – | – | – | – | – | – | binds
